Assay results from paper PMC9178029, “The structure of EXTL3 helps to explain the different roles of bi-domain exostosins in heparan sulfate synthesis” (Nature Communications, 2022).

Target: the molecule itself
Test: cryo-EM structure; single-particle cryo-EM of purified EXTL3ΔN at 0.1-0.4 mg/ml, C2 symmetry; apo (2.4 Å) and with 10 mM UDP and 2.5 mM MnCl2 (2.9 Å); buffer 50 mM Tris-HCl pH 6.8, 100 mM NaCl, 50 mM KCl

B1: EXTL3ΔN, soluble form of human exostosin-like 3 (EXTL3) lacking the first 51 amino acids (enzyme, UniProt O43909 52-919, looked up)
chain: TTLDEADEAGKRIFGPRVGNELCEVKHVLDLCRIRESVSEELLQLEAKRQELNSEIAKLNLKIEACKKSIENAKQDLLQLKNVISQTEHSYKELMAQNQPKLSLPIRLLPEKDDAGLPPPKATRGCRLHNCFDYSRCPLTSGFPVYVYDSDQFVFGSYLDPLVKQAFQATARANVYVTENADIACLYVILVGEMQEPVVLRPAELEKQLYSLPHWRTDGHNHVIINLSRKSDTQNLLYNVSTGRAMVAQSTFYTVQYRPGFDLVVSPLVHAMSEPNFMEIPPQVPVKRKYLFTFQGEKIESLRSSLQEARSFEEEMEGDPPADYDDRIIATLKAVQDSKLDQVLVEFTCKNQPKPSLPTEWALCGEREDRLELLKLSTFALIITPGDPRLVISSGCATRLFEALEVGAVPVVLGEQVQLPYQDMLQWNEAALVVPKPRVTEVHFLLRSLSDSDLLAMRRQGRFLWETYFSTADSIFNTVLAMIRTRIQIPAAPIREEAAAEIPHRSGKAAGTDPNMADNGDLDLGPVETEPPYASPRYLRNFTLTVTDFYRSWNCAPGPFHLFPHTPFDPVLPSEAKFLGSGTGFRPIGGGAGGSGKEFQAALGGNVPREQFTVVMLTYEREEVLMNSLERLNGLPYLNKVVVVWNSPKLPSEDLLWPDIGVPIMVVRTEKNSLNNRFLPWNEIETEAILSIDDDAHLRHDEIMFGFRVWREARDRIVGFPGRYHAWDIPHQSWLYNSNYSCELSMVLTGAAFFHKYYAYLYSYVMPQAIRDMVDEYINCEDIAMNFLVSHITRKPPIKVTSRWTFRCPGCPQALSHDDSHFHERHKCINFFVKVYGYMPLLYTQFRVDSVLFKTRLPHDKTKCFKFI
modifications: partial N-glycans modelled at Asn592 and Asn790; intermolecular disulfide bridges between Cys793 and Cys915
notes: human exostosin-like 3 (EXTL3), amino acids 52-919; holds the predicted coiled coil, the GT47 domain, the inter-domain linker and the GT64 domain; lacks the transmembrane helix; Only the 170 kDa globular part (GT47, linker, GT64) is seen in the map; the coiled coil is not visible; also called EXTL3∆N; secretory EXTL3∆N
stoichiometry N: 2
